{
  "source": "paper doi:10.1101/2021.09.27.461913v1",
  "tested_on": "O=c1[nH]c(=O)c2[nH]cnc2[nH]1",
  "experiment": "cells, lysate or membranes",
  "settings": "labelled compound",
  "data": [
    {"substance": "UapA (Aspergillus nidulans FGSC A4)", "values": [
      {"measurement": "Km", "result": "6 ± 2", "unit": "µM"}
    ]}
  ]
}
